From patent publication US20180066066A1 (University of Texas, published 2018)

Experiments:
[1] = target: human HER3 receptor on cells (human, UniProt P21860 20-1342); assay: cell-based or functional assay
[2] = target: T1, human HER3/ErbB3 extracellular domain (human, UniProt P21860 20-643); assay: SPR, Biacore T-100, HER3 ECD
T1 construct: extracellular domain; the range 1-643 of M34309 is printed only for the immunogen; also called Human HER3 ECD; recombinant human HER3

[3] = target: T1, human HER3/ErbB3 extracellular domain; assay: ELISA on human HER3 ECD
Mouse HER3 ECD = target: T2, Mouse HER3 ECD (mouse, UniProt Q61526 20-641); assay: ELISA on mouse HER3 ECD; column uncertain
T2 construct: extracellular domain; also called mouse HER3 ECD domains
T2 sequence (Q61526 20-641): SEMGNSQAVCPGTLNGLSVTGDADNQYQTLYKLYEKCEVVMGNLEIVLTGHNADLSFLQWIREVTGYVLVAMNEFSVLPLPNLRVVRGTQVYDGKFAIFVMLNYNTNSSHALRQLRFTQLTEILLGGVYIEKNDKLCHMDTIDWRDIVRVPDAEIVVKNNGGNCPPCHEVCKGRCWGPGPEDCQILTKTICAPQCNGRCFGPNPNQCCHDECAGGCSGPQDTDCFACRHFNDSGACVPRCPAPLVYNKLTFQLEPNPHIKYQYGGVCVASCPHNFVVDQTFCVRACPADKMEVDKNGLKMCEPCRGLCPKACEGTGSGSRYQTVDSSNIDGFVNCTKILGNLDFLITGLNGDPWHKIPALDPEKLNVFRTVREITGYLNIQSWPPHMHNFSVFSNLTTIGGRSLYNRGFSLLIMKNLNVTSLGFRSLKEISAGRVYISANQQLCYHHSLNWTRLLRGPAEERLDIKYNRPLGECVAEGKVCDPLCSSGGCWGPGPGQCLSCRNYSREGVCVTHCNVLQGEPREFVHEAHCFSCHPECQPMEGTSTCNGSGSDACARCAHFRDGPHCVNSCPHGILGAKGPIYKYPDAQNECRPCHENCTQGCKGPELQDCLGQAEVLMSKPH

T1 sequence (P21860 20-643): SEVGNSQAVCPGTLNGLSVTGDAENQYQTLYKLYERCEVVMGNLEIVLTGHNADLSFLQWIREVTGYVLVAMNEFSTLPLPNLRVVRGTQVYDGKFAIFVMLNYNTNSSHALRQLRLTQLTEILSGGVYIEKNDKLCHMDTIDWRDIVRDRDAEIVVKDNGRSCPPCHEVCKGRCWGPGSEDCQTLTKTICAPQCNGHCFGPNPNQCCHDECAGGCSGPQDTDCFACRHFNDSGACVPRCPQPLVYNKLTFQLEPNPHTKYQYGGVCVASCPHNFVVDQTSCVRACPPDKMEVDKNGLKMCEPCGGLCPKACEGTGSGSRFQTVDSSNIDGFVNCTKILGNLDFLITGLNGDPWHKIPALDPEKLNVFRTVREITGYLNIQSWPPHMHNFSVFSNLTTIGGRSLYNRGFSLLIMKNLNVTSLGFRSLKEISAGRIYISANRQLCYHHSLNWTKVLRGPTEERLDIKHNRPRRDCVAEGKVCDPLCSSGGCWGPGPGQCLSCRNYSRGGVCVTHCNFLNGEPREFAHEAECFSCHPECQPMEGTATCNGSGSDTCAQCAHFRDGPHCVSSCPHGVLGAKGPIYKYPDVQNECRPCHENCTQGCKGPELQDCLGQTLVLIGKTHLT
Chain of human HER3 receptor on cells (P21860 20-1342): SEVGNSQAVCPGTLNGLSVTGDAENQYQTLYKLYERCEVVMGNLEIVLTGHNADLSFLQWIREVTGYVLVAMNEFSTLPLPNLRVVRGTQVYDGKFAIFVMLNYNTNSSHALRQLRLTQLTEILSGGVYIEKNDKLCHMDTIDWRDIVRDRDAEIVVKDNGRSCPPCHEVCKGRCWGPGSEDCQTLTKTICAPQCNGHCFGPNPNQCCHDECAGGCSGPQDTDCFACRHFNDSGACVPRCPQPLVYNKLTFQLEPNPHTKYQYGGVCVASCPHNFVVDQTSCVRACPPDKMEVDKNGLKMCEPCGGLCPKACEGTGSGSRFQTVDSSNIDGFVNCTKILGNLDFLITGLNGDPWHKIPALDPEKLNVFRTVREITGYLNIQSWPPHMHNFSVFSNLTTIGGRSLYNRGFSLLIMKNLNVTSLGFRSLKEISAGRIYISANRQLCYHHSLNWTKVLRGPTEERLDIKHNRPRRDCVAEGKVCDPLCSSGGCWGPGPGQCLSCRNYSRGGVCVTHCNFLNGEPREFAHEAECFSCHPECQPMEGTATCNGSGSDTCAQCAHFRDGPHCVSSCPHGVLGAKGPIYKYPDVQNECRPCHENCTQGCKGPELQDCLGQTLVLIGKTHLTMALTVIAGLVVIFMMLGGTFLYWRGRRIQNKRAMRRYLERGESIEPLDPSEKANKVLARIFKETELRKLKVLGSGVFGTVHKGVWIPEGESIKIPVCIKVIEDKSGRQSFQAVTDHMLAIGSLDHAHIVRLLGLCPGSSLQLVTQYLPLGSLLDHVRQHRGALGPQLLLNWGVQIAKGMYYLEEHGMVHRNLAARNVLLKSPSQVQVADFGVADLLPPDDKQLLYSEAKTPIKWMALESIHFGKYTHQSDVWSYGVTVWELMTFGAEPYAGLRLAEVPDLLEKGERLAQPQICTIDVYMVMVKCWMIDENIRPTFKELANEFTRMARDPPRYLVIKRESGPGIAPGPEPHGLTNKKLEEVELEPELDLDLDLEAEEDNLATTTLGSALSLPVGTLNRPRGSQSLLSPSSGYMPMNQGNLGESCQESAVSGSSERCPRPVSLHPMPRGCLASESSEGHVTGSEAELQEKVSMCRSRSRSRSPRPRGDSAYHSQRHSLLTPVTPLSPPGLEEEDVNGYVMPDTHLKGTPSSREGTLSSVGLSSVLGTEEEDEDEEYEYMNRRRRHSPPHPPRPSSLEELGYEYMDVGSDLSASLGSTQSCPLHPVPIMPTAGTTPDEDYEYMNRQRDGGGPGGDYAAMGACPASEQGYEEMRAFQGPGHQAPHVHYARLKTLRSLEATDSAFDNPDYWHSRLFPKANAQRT

pHER3 inhibition (IC50, µg/ml) [1]: 0.033 µg/ml | Kd [2]: 3.32 nM | koff [2]: 0.000458 s⁻¹ | kon [2]: 138000 M⁻¹ s⁻¹ | EC50 [3]: 2.7 ng/mL | EC50 (Mouse HER3 ECD): 5.9 ng/mL
B1: Chi46 (antibody, V domains shown)
VH: EEQLVESGGGLVQPEGSLTLTCTASGFSFSASYYIYWVRQAPGKGLEGIAYITGDDDKRTYYANWAKGRFTISKTSTTVTLQMTSLTAADTATYFCTRNLPDELWGPGTLVTVSS
VL: QAVVTQTPSSVSAAVGGTVTISCQSSESVYSYKNLAWYQQKPGQPPRLLIWQASRLSSGVSSRFSGSGSGTQFTLTISGVQCDDAATYYCQGTYYSSAWDFVFGGGTEVMVE
notes: also called parental rabbit/human Fc chimera of Rab46
